Values quoted from earlier work in publication PMC6776250.

Biological target: RNase Y (Bacillus subtilis) (UniProt O31774)
Test: SPR

Chain of UniProt O31774 (O31774 whole entry): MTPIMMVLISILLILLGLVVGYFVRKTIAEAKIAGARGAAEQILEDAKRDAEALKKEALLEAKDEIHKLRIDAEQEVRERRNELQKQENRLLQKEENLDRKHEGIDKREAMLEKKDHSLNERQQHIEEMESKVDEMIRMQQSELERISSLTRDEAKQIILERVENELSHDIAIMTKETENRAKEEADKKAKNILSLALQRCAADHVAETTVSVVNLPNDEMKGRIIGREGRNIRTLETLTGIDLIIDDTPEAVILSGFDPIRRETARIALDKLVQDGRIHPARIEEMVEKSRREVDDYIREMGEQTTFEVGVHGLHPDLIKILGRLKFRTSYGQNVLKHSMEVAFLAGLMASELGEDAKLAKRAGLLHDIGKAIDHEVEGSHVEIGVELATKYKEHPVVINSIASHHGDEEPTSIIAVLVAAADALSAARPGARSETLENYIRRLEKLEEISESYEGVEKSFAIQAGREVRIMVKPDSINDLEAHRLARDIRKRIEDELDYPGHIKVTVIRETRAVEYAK

Kd: 5 nM
Substance: PNPase (from UniProt P50849)
